Key:
[1] = target: T1, FAAAYPDDDF1
T1 chain: FAAAYPDDDF

[2] = target: T2, FYPLPWPDDDY{LYSN3}NH2
T2 chain: FYPLPWPDDDYX

[3] = target: T3, FAAAWPDDDF1
T3 chain: FAAAWPDDDF

[4] = target: T4, WAAAFPDDDF1
T4 chain: WAAAFPDDDF

[5] = target: T5, KKMKKM{LYS(N3)} peptide-linker conjugate, PEG4 linker (Table 6 entry 4)
T5 chain: KKMKKMX

[6] = target: T6, KKMKKM{LYS(N3)} peptide-linker conjugate, oligo-PEG linker (Table 6 entry 3)
T6 chain: KKMKKMX

[7] = target: KF peptide-linker conjugate, oligo linker (Table 6 entry 1)
[8] = target: T7, FFMFFM{LYS(N3)} peptide-linker conjugate, oligo linker (Table 6 entry 6)
T7 chain: FFMFFMX

[9] = target: […]{LYS(N3)} peptide-linker conjugate, oligo linker (Table 6 entry 7)
[10] = target: T8, KKMKKM{LYS(N3)} peptide-linker conjugate, oligo linker (Table 6 entry 2)
T8 chain: KKMKKMX

[11] = target: […]{LYS(N3)} peptide-linker conjugate, oligo linker (Table 6 entry 5)

B1: Vibrio proteolyticus aminopeptidase (protein)
chain: MPPITQQATVTAWLPQVDASQITGTISSLESFTNRFYTTTSGAQASDWIASEWQALSASLPNASVKQVSHSGYNQKSVVMTITGSEAPDEWIVIGGHLDSTIGSHTNEQSVAPGADDDASGIAAVTEVIRVLSENNFQPKRSIAFMAYAAEEVGLRGSQDLANQYKSEGKNVVSALQLDMTNYKGSAQDVVFITDYTDSNFTQYLTQLMDEYLPSLTYGFDTCGYACSDHASWHNAGYPAAMPFESKFNDYNPRIHTTQDTLANSDPTGSHAKKFTQLGLAYAIEMGSATGDTPTPGNQ
HPLC Assay Conv; 600 uM Peptide, 0.08 uM enzyme, RT/0.5 hr [1]: 5%
HPLC Assay Conv; 600 uM Peptide, 0.8 uM enzyme, RT/0.5 hr [1]: 50%
HPLC Assay Conv; 600 uM Peptide, 8 uM enzyme, RT/0.5 hr [1]: 100%
HPLC Assay Conv; 200 uM Peptide, 8 uM enzyme, MOPS pH 5.0, RT/0.5 hr [2]: 100%
HPLC Assay Conv; 200 uM Peptide, 8 uM enzyme, MOPS pH 5.0, RT/1 hr [2]: 100%
HPLC Assay Conv; 600 uM Peptide, 0.8 uM enzyme, pH 5.5, RT/0.5 hr [2]: 100%
HPLC Assay Conv; 600 uM Peptide, 0.8 uM enzyme, pH 6.5, RT/0.5 hr [2]: 100%
HPLC Assay Conv; 600 uM Peptide, 0.8 uM enzyme, pH 7.5, RT/0.5 hr [2]: 100%
HPLC Assay Conv; 600 uM Peptide, 0.8 uM enzyme, pH 8.5, RT/0.5 hr [2]: 100%
HPLC Assay Conv; 1200 uM Peptide, 800 pM enzyme, pH 7.5, RT/0.5 hr [2]: 2.70%
HPLC Assay Conv; 1200 uM Peptide, 800 pM enzyme, pH 8.5, RT/0.5 hr [2]: 6.80%
HPLC Assay Conv; 1200 uM Peptide, 0.008 uM enzyme, pH 5.5, RT/0.5 hr [2]: 1.40%
HPLC Assay Conv; 1200 uM Peptide, 0.008 uM enzyme, pH 6.5, RT/0.5 hr [2]: 56%
HPLC Assay Conv; 1200 uM Peptide, 0.008 uM enzyme, pH 7.5, RT/0.5 hr [2]: 100%
HPLC Assay Conv; 1200 uM Peptide, 0.008 uM enzyme, pH 8.5, RT/0.5 hr [2]: 100%
HPLC Assay Conv; 1200 uM Peptide, 0.08 uM enzyme, pH 5.5, RT/0.5 hr [2]: 50%
HPLC Assay Conv; 1200 uM Peptide, 0.08 uM enzyme, pH 6.5, RT/0.5 hr [2]: 100%
HPLC Assay Conv; 1200 uM Peptide, 0.08 uM enzyme, pH 7.5, RT/0.5 hr [2]: 100%
HPLC Assay Conv; 1200 uM Peptide, 0.08 uM enzyme, pH 8.5, RT/0.5 hr [2]: 100%
HPLC Assay Conv; 600 uM Peptide, 8 uM enzyme, pH 8, RT/0.5 hr [3]: 100%
HPLC Assay Conv; 300 uM Peptide, 8 uM enzyme, 50/50 MOPS Mg buffer/RB1, RT/0.5 hr [4]: 30%
HPLC Assay Conv; 300 uM Peptide, 8 uM enzyme, RB2 + Mg, RT/0.5 hr [4]: 5%
HPLC Assay Conv; 300 uM Peptide, 8 uM enzyme, RB4, RT/0.5 hr [4]: 100%
HPLC Assay Conv; 300 uM Peptide, 8 uM enzyme, pH 8, 60 mM KOAc, RT/0.5 hr [4]: 70%
HPLC Assay Conv; 300 uM Peptide, 8 uM enzyme, pH 8, 60 mM KOAc, RT/2 hr [4]: 100%
HPLC Assay Conv; 300 uM Peptide, 8 uM enzyme, pH 8, 0.2% Tween20, RT/0.5 hr [4]: 100%
HPLC Assay Conv; 300 uM Peptide, 8 uM enzyme, pH 8, RT/0.5 hr [4]: 100%
HPLC Assay Conv; 600 uM Peptide, 8 uM enzyme, pH 8, RT/0.5 hr [4]: 100%

B2: rat aminopeptidase N (protein)
chain: KPWNQYRLPKTLIPDSYQVTLRPYLTPNEQGLYIFKGSSTVRFTCNETTNVIIIHSKKLNYTNKGNHRVALRALGDTPAPNIDTTELVERTEYLVVHLQGSLVKGHQYEMDSEFQGELADDLAGFYRSEYMEGGNKKVVATTQMQAADARKSFPCFDEPAMKASFNITLIHPNNLTALSNMLPKDSRTLQEDPSWNVTEFHPTPKMSTYLLAYIVSEFKYVEAVSPNRVQIRIWARPSAIDEGHGDYALQVTGPILNFFAQHYNTAYPLEKSDQIALPDFNAGAMENWGLVTYRESALVFDPQSSSISNKERVVTVIAHELAHQWFGNLVTVDWWNDLWLNEGFASYVEFLGADYAEPTWNLKDLIVLNDVYRVMAVDALASSHPLSSPANEVNTPAQISELFDSITYSKGASVLRMLSSFLTEDLFKKGLSSYLHTFQYSNTIYLDLWEHLQQAVDSQTAIKLPASVSTIMDRWILQMGFPVITVNTSTGEIYQEHFLLDPTSKPTRPSDFNYLWIVPIPYLKNGKEDHYWLETEKNQSAEFQTSSNEWLLLNINVTGYYQVNYDENNWRKIQNQLQTDLSVIPVINRAQIIHDSFNLASAGKLSITLPLSNTLFLASETEYMPWEAALSSLNYFKLMFDRSEVYGPMKRYLKKQVTPLFAYFKIKTNNWLDRPPTLMEQYNEINAISTACSSGLEECRDLVVGLYSQWMNNSDNNPIHPNLRSTVYCNAIAFGGEEEWNFAWEQFRKATLVNEADKLRSALACSNEVWILNRYLSYTLNPDYIRKQDATSTIVSIANNVVGQTLVWDFVRSNWKKLFEDYGGGSFSFANLIQGVTRRFSSEFELQQLEQFKEDNSATGFGSGTRALEQALEKTKANIKWVKENKDVVLKWFTENS
Cleaved by Rat APN [5]: Yes
Cleaved by Rat APN [6]: No
Cleaved by Rat APN [7]: No
Cleaved by Rat APN [8]: Yes
Cleaved by Rat APN [9]: Yes
Cleaved by Rat APN [10]: No
Cleaved by Rat APN [11]: Yes
